# Experimental data published in patent US20240376185A1 (SMIVET B V, published 2024).
# Changes are numbered by the printed parent chain. Names may count otherwise.
# B1: SVT16-L123Q-GS2-SVG13M4-H6 (bispecific antibody)
# chain: QVQLQESGGGSVQAGDSLRLSCAASGRTISNYAMGWFRQAPGKQREFVAAISRSDNTYYTDSVKGRFTISRDNAKNTLYLQMNSLKPEETAVYYCAADPNLMYESKWKYRALEAWGQGTQVTVSSGGGGSGGGSEVQLVESGGGLVQPGGSLRLSCEASGFTFDDYGMSWVRQAPGKGLEWVSSLTPNGGSTYYADSVKGRFTISRDNAKNTLYLQMNSLKPEDTALYYCAKNSYYGAMDYWGQGTQVTVSSHHHHHH
# B2: SVT06-GS3-SVT16-L123Q-GS2-SVA12M2-H6 (bispecific antibody)
# chain: QVQLQESGGGSVQAGGSLRLSCTASELSYDDYTIAWFRRAAGEGRVEDGEGVASITKSYDRAYDNKINYGHSVKGRFTISRDNAKNTVYLQMTDLLPSDTAVYYCALDITPPGGVGASLTEGFLFDYWGQGTQVTVSSGGGGSGGGGSGGGGSQVQLQESGGGSVQAGDSLRLSCAASGRTISNYAMGWFRQAPGKQREFVAAISRSDNTYYTDSVKGRFTISRDNAKNTLYLQMNSLKPEETAVYYCAADPNLMYESKWKYRALEAWGQGTQVTVSSGGGGSGGGSEVQLVESGGGLVQAGGSLRLSCAASGRTFSYYPMAWFRQAPGQEREFVAAIIGADTTYYADSLKGRFTISRDNAKNMVYLQMNSLKPEDTAVYYCAARNTYWSDVYYREGQYTNWGQGTQVTVSSHHHHHH
# B3: SVT16-L123Q-GS2-SVA12M2-H6 (bispecific antibody)
# chain: QVQLQESGGGSVQAGDSLRLSCAASGRTISNYAMGWFRQAPGKQREFVAAISRSDNTYYTDSVKGRFTISRDNAKNTLYLQMNSLKPEETAVYYCAADPNLMYESKWKYRALEAWGQGTQVTVSSGGGGSGGGSEVQLVESGGGLVQAGGSLRLSCAASGRTFSYYPMAWFRQAPGQEREFVAAIIGADTTYYADSLKGRFTISRDNAKNMVYLQMNSLKPEDTAVYYCAARNTYWSDVYYREGQYTNWGQGTQVTVSSHHHHHH
# B4: SVT20L-L123Q (VHH)
# VHH: QVQLQQSGGGLVQAGGSLRLSCAASGRTMSSYAMGWFRQAPGKQREFVAAISRSGGNTYYTDSVKGRFTISRDNAKNTLYLQMNSLKPEETAVYYCAADPNLMYESKWKYRALEAWGQGTQVTVSS
# B5: SVT34L-L123Q (VHH)
# VHH: B4 VHH with Q6E, A14P, M29I, T69I, S85N
# B6: SVT06-SVT16-L123Q-GS2-SVG13M4-H6 (bispecific antibody)
# chain: QVQLQESGGGSVQAGGSLRLSCTASELSYDDYTIAWFRRAAGEGRVEDGEGVASITKSYDRAYDNKINYGHSVKGRFTISRDNAKNTVYLQMTDLLPSDTAVYYCALDITPPGGVGASLTEGFLFDYWGQGTQVTVSSQVQLQESGGGSVQAGDSLRLSCAASGRTISNYAMGWFRQAPGKQREFVAAISRSDNTYYTDSVKGRFTISRDNAKNTLYLQMNSLKPEETAVYYCAADPNLMYESKWKYRALEAWGQGTQVTVSSGGGGSGGGSEVQLVESGGGLVQPGGSLRLSCEASGFTFDDYGMSWVRQAPGKGLEWVSSLTPNGGSTYYADSVKGRFTISRDNAKNTLYLQMNSLKPEDTALYYCAKNSYYGAMDYWGQGTQVTVSSHHHHHH
# Columns and labels:
# [1] = biological target: T1, tetanus neurotoxin (TeNT), authentic tetanus holotoxin (Clostridium tetani, UniProt P04958 2-1315)
# [2] = biological target: T1, tetanus neurotoxin (TeNT), authentic …; assay: cell-based or functional assay
# [3] = biological target: tetanus neurotoxin (TeNT), authentic tetanus holotoxin (Clostridium tetani, UniProt P04958 2-1315); remark: listed apart in the source
# [4] = biological target: Tetanus neurotoxin (TeNT), authentic tetanus holotoxin (Clostridium tetani, UniProt P04958 2-1315)
Binder,Kd [1] [nM],koff [1] [s⁻¹],kon [1] [M⁻¹ s⁻¹],Endpoint dilution factor [2],SDA concentration providing full protection [2] [nM],IC50 [3] [µg/mL],also measured
B1,0.227,0.000184,665000,< 1,> 1000,,
B2,0.0133,1.32e-05,989000,> 32,3.1,,Potency IU/mg [2]: > 93.1 IU/mg
B3,0.224,0.000199,886000,,,,
B4,,,,,,0.038,
B5,,,,,,0.034,
B6,,,,,,,Kd [4]: 0.0159 nM; koff [4]: 6.61e-06 s⁻¹; kon [4]: 417000 M⁻¹ s⁻¹
